Source: patent US11371013B2, “Culture medium composition and method of culturing cell or tissue using thereof” (Nissan Chemical Industries, Ltd., priority 2012, dated 2022)

Key:
[1] = Viscosity measurement of medium composition (E type viscometer); assay type: physicochemical; details: 37°C, 100 rpm
Method: The viscosity of the liquid containing the structure can be measured, for example, by the method described in the below-mentioned Examples. Specifically, it can be measured under 37° C. conditions and using an E-type viscosity meter (manufactured by Toki Sangyo Co., Ltd., TV-22 type viscosity meter, model: TVE-22L, corn roter: standard roter 1° 34′×R24, rotation number 100 rpm).
(§1) This aqueous solution was allowed to cool to room temperature with stirring, and sterilized at 121° C. for 20 min in an autoclave. […] The viscosity of the medium compositions was measured using an E type viscometer (manufactured by Toki Sangyo Co., Ltd., Viscometer TVE-22L, standard roter 1° 34′×R24) under 37° C. condition at 100 rpm for 5 min.
The medium compositions prepared above were subjected to a suspension test of HeLa cell spheres and a viscosity measurement, in the same manner as with the deacylated gellan gum-containing medium. The viscosity of 1.0% (w/v) methylcellulose was measured at 50 rpm due to the measurement range of the apparatus.
In the same manner as in Experimental Example 2, spheres of HeLa cells were formed, and several tens of the spheres were added to each medium (1 mL) prepared above, the mixture was stood still at 37° C. for 1 hr, and the suspended state of the sphere cells was visually observed. […] Furthermore, it was confirmed that addition of an equal amount of the medium to the cell suspension and centrifugation (300 to 400G, 5 min) thereof result in sedimentation and recovery of the spheres of HeLa cells. The suspended state of the spheres of HeLa cells cultured in the medium composition of the present invention is each shown in FIG. 11.
(§2) The final concentration of polysaccharide was set to 0.1% (w/v) for xanthan gum, sodium alginate, locust bean gum, 0.2% (w/v) for methylcellulose, and 0.05% (w/v) for K-carageenan and diutan gum. The state of each medium composition and the viscosity measured by a method similar to that in Analysis Example 1 are shown in Tables 11-16.

[2] = State of medium composition (liquid/solid); assay type: physicochemical
Method: as §1
DMEM/F-12 medium (manufactured by Aldrich, 100 mL) was placed in a 200 mL pear-shaped flask, and methylcellulose (M0387, manufactured by Aldrich, […]) was added. The mixture was stirred while cooling in an ice bath to dissolve methylcellulose. Using this solution, medium compositions added with the aqueous methylcellulose solution at a final concentration of 0.1, 0.3, 0.6 or 1.0% (w/v) were prepared.
A 10-fold concentration of DMEM/F-12 medium (manufactured by Aldrich, 1 mL), a buffer for reconstitution (manufactured by Nitta Gelatin Inc., 1 mL) and pure water (1.5 mL) were added to 0.3% cell matrix type I-A (manufactured by Nitta Gelatin Inc., 6.5 mL), and the mixture was stirred in an ice to give a 0.2% collagen-containing medium. Similarly, medium compositions added with collagen at a final concentration of 0.01, 0.05, 0.1 or 0.2% (w/v) were prepared.
as §2

HepG2 cells [3] = assay: Toxicity test of compound to hepatocytes: number of viable cells (Cell Titer-Glo); assay type: cell-based, human; details: 1 day, DAG 0.015%, no addition = 1
Method: (§3) This aqueous solution was sterilized at 121° C. for 20 min in an autoclave. On the other hand, HepG2 cells was mixed with DMEM medium (manufactured by WAKO) at 100000 cells/mL, and the cell suspension was dispensed to the wells of a 96-well flat bottom ultra low adhesion surface microplate (manufactured by Corning Incorporated, #3474) at 100 μL/well. […] Successively, this plate was cultured by being stood still in a CO2 incubator (37° C., 5% CO2) for 1 day.
The culture medium (50 μL) after culturing for 1 day was dispensed to a 96-well titer plate (manufactured by Corning Incorporated), to this culture medium was added a Cell Titer-Glo (registered trade mark) reagent (manufactured by Promega, 50 μL), and the mixture was incubated at room temperature for 10 min. The luminescence intensity was measured by a multiplate reader is (manufactured by Molecular Devices, FlexStation3) to measure the number of viable cells.

HepG2 cells [4] = assay: Toxicity test of compound to hepatocytes: lactic acid dehydrogenase (LDH) activity measurement; assay type: cell-based, human; details: 1 day, DAG 0.015%
Method: as §3
To the culture medium (100 μL) after culturing for 1 day was added DMEM medium (manufactured by WAKO, 100 μL), and the plate was centrifuged by 440G for 15 min. The supernatant (100 μL) was dispensed to a 96-well titer plate (manufactured by Corning Incorporated), a reaction mixture (100 μL) in a cytotoxicity detection kit (manufactured by Roche Applied Science) was added, and the mixture was stood under shading at room temperature for 30 min. Successively, according to the protocol of the above-mentioned kit, the absorbance at 490 nm (reference; 600 nm) was measured by an absorbance spectrometer (manufactured by Molecular Devices, SPECTRA MAX 190), whereby the rate of the disordered cell, that is, cell disorder rate (%), was measured.

Row | Compound | viscosity ([1]; 0.01% (w/v) in DMEM/F-12) [mPa · s] | viscosity ([1]; 0.05% (w/v) in DMEM/F-12) | viscosity ([1]; 0.1% (w/v) in DMEM/F-12) | viscosity ([1]; 0.2% (w/v) in DMEM/F-12) | state ([2]; 0.01% (w/v) in DMEM/F-12) | state ([2]; 0.05% (w/v) in DMEM/F-12) | state ([2]; 0.1% (w/v) in DMEM/F-12) | state ([2]; 0.2% (w/v) in DMEM/F-12) | relative cell number (HepG2 cells [3]; 20 μM) | relative cell number (HepG2 cells [3]; 40 μM) | relative cell number (HepG2 cells [3]; 60 μM) | relative cell number (HepG2 cells [3]; 100 μM) | cell disorder rate (HepG2 cells [4]; 20 μM) [%] | cell disorder rate (HepG2 cells [4]; 40 μM) [%] | cell disorder rate (HepG2 cells [4]; 60 μM) [%] | cell disorder rate (HepG2 cells [4]; 100 μM) [%]
1 | collagen | 1.18 | unmeasurable | unmeasurable | unmeasurable | liquid | liquid/solid | solid (gel) | solid (gel) | – | – | – | – | – | – | – | –
2 | Cc1c(C)c2c(c(C)c1O)CCC(C)(COc1ccc(CC3SC(=O)NC3=O)cc1)O2 (stereo not shown) [Troglitazone] | – | – | – | – | – | – | – | – | 0.68 | 0.50 | 0.48 | 0.39 | 2.68 | 14.7 | 22.5 | 60.7
